# Measured values as given in patent US20150139990A1 (DAINIPPON SUMITOMO PHARMA, published 2015).
# Positions count from the first letter of the chain named. Names may count otherwise.
# T1: human CD81 mutant D137A (human, UniProt P60033 1-236, limits assumed)
# T1 construct: as m30; not shown: C-terminal V5 and 6xHis tags
# T1 sequence: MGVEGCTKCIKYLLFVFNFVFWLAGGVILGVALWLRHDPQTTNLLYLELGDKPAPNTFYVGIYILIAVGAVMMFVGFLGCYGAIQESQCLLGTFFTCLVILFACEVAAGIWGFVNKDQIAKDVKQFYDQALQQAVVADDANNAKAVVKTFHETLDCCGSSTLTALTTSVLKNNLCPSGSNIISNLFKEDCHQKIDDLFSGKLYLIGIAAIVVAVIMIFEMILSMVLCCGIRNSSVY
# T2: human CD81 mutant V169A (human, UniProt P60033 1-236, limits assumed)
# T2 construct: as m30; not shown: C-terminal V5 and 6xHis tags
# T2 sequence: T1 sequence with A137D, V169A
# T3: human CD81 mutant I194A (human, UniProt P60033 1-236, limits assumed)
# T3 construct: as m30; not shown: C-terminal V5 and 6xHis tags
# T3 sequence: T1 sequence with A137D, I194A
# T4: human CD81 mutant V135A (human, UniProt P60033 1-236, limits assumed)
# T4 construct: as m30; not shown: C-terminal V5 and 6xHis tags
# T4 sequence: T1 sequence with V135A, A137D
# T5: human CD81 mutant L165A (human, UniProt P60033 1-236, limits assumed)
# T5 construct: as m30; not shown: C-terminal V5 and 6xHis tags
# T5 sequence: T1 sequence with A137D, L165A
# T6: human CD81 mutant A164T (human, UniProt P60033 1-236, limits assumed)
# T6 construct: as m30; not shown: C-terminal V5 and 6xHis tags
# T6 sequence: T1 sequence with A137D, A164T
# T7: human CD81 on CD81-expressing cells (Jurkat E6.1, human PBMC, Ramos) (human, UniProt P60033 1-236)
# T7 sequence: T1 sequence with A137D
# T8: human CD81 mutant A164V (human, UniProt P60033 1-236, limits assumed)
# T8 construct: as m30; not shown: C-terminal V5 and 6xHis tags
# T8 sequence: T1 sequence with A137D, A164V
# T9: human CD81 mutant V169L (human, UniProt P60033 1-236, limits assumed)
# T9 construct: as m30; not shown: C-terminal V5 and 6xHis tags
# T9 sequence: T1 sequence with A137D, V169L
# B1: 002-D03 (antibody, human IgG4 S228P, lambda, V domains shown)
# VH: EVQLLESGGGLVQPGGSLRLSCAASGFTFRSNYMSWVRQAPGKGLEWVSYISSSSTYTDYADSVKGRFTISRDNSKNTLYLQMNSLRAEDTAVYYCARYSYGRDNFDYWGQGTLVTVSS
# VL: QSVLTQPPSASGTPGQRVTISCTGSTSNIGAGYDTHWYQQLPGTAPKLLIYGNSNRPSGVPDRFSGSKSGTSASLAISGLRSEDEADYYCQSYDTNLSVWVFGGGTKLTVLG
# notes: IgG4 S228P
# B2: 001-B06 (antibody, human IgG4 S228P, lambda, V domains shown)
# VH: B1 VH with R30S, N105T
# VL: B1 VL with P8F, S82P, N96S
# notes: IgG4 S228P
# B3: 002-F07 (antibody, human IgG4 S228P, lambda, V domains shown)
# VH: B1 VH with R30S, N105S
# VL: B1 VL with P8F, Y33F, S72T
# notes: IgG4 S228P
# B4: 002-H03 (antibody, human IgG4 S228P, lambda, V domains shown)
# VH: B1 VH with R30S
# VL: B1 VL with P8S, L48P, V99A
# notes: IgG4 S228P
# B5: 002-H02 (antibody, human IgG4 S228P, lambda, V domains shown)
# VH: B1 VH with R30S, N105S
# VL: B1 VL with P8S, D34G
# notes: IgG4 S228P
# B6: 002-C09 (antibody, human IgG4 S228P, lambda, V domains shown)
# VH: B1 VH with R30S
# VL: B1 VL with P8A, D34G, Q40R, V99G
# notes: IgG4 S228P
# B7: 002-B07 (antibody, human IgG4 S228P, lambda, V domains shown)
# VH: B1 VH with R30S
# VL: B1 VL with P8S, V99G
# notes: IgG4 S228P
# B8: 002-D08 (antibody, human IgG4 S228P, lambda, V domains shown)
# VH: B1 VH with A24T, T28P, R30S, T58S, T69S
# VL: B1 VL with P8S, D34A
# notes: IgG4 S228P
# B9: 003-A11 (antibody, human IgG4 S228P, lambda, V domains shown)
# VH: B1 VH with R30G
# VL: B1 VL with V99G
# notes: IgG4 S228P
# B10: 002-D10 (antibody, human IgG4 S228P, lambda, V domains shown)
# VH: B1 VH with R30S, L45P
# VL: B1 VL with P8S, I77V, D87E, V99G
# notes: IgG4 S228P
# Biological target: T1, human CD81 mutant D137A
# Experiment: ELISA
row,Binder,relative binding affinity [%]
1,B1,< 20

# Biological target: T2, human CD81 mutant V169A
# Experiment: ELISA
row,Binder,relative binding affinity [%]
1,B2,< 20
2,B3,< 20
3,B4,< 20
4,B5,< 20
5,B6,< 20
6,B7,< 20
7,B8,< 20
8,B9,< 20
9,B10,< 20
10,B1,< 20

# Biological target: T3, human CD81 mutant I194A
# Experiment: ELISA
row,Binder,relative binding affinity [%]
1,B3,< 20
2,B9,< 20

# Biological target: T4, human CD81 mutant V135A
# Experiment: ELISA
row,Binder,relative binding affinity [%]
1,B3,< 20
2,B4,< 20
3,B5,< 20
4,B6,< 20
5,B7,< 20
6,B8,< 20
7,B9,< 20
8,B10,< 20
9,B1,< 20

# Biological target: T5, human CD81 mutant L165A
# Experiment: ELISA
row,Binder,relative binding affinity [%]
1,B3,< 20
2,B4,< 20
3,B5,< 20
4,B6,< 20
5,B7,< 20
6,B8,< 20
7,B9,< 20
8,B10,< 20
9,B1,< 20

# Biological target: T6, human CD81 mutant A164T
# Experiment: ELISA
row,Binder,relative binding affinity [%]
1,B3,< 20
2,B4,< 20
3,B5,< 20
4,B6,< 20
5,B7,< 20
6,B8,< 20
7,B9,< 20
8,B10,< 20
9,B1,< 20

# Biological target: T7, human CD81 on CD81-expressing cells …
# Experiment: cell-based or functional assay
Binder,Jurkat chemotaxis (% of control IgG4) at 0.001 µg/mL [%],Jurkat chemotaxis (% of control IgG4) at 0.01 µg/mL [%],Jurkat chemotaxis (% of control IgG4) at 0.1 µg/mL [%],Jurkat chemotaxis (% of control IgG4) at 1 µg/mL [%],Jurkat chemotaxis (% of control IgG4) at 10 µg/mL [%]
B2,102,91,35,3,3
B3,101,88,38,13,15
B4,106,89,13,0,-3
B5,87,85,-1,-10,-2
B6,101,82,15,-1,11
B7,92,87,8,4,-9
B8,101,105,67,19,14
B9,91,86,16,1,2
B10,97,87,34,6,10
B1,105,91,25,14,16

# Biological target: T8, human CD81 mutant A164V
# Experiment: ELISA
row,Binder,relative binding affinity [%]
1,B3,< 20
2,B4,< 20
3,B5,< 20
4,B6,< 20
5,B7,< 20
6,B8,< 20
7,B9,< 20
8,B10,< 20
9,B1,< 20

# Biological target: T9, human CD81 mutant V169L
# Experiment: ELISA
row,Binder,relative binding affinity [%]
1,B3,< 20
2,B5,< 20
3,B6,< 20
4,B7,< 20
5,B9,< 20
6,B10,< 20
7,B1,< 20
